Results from patent publication US20060073572A1, “Cytokine structurally related to IL-17” (The Johns Hopkins University, priority 2001, published 2006).

Test system: ICAM-1
Assay: ICAM-1 surface protein expression on NHBE cells by flow cytometry
Format: cell-based, human
Conditions: 100 ng/ml, 48 hours, mean±SD (n=4)
Method: FIG. 4. Effect of ML-1 on ICAM-1 surface expression on NHBE cells by Flow Cytometry. NHBE cells were treated for 48 hours under following conditions: medium only, rIL-17 (100 ng/ml), purified His-tagged protein (Positope, 100 ng/ml), or ML-1 (100 ng/ml) as indicated. The mean fluorescence intensity of ICAM-1 surface expression was measured. The experiment was conducted four times. The results shown are from a representative experiment. * p<0.01.
To determine whether ML-1 is able to induce ICAM-1 expression on NHBE cells, surface expression of ICAM-1 on NHBE cells was measured and the effects of ML-1 and IL-17 were compared.
NHBE cells were treated with IL-17 (100 ng/ml), ML-1 (100 ng/ml), or a control His protein (Positope, 100 ng/ml). The cells were harvested following treatment with 0.1% trypsin-0.02% EDTA at 37° C. for 6 minutes and suspended in PBS containing 2% BSA and 0.02 % sodium azide. One million cells were incubated with a mouse anti-human ICAM-1 monoclonal antibody (R&D Systems, Minneapolis, Minn.) on ice for 30 minutes. […] After three additional washes in PBS, the cells were resuspended in PBS and immediately analyzed with a FACScan flow cytometer (Becton Dickinson, Mountain View, Calif.). […] Indices are expressed as mean±SD (n=4).

B1: ML-1: new member of the IL-17 cytokine family, SEQ ID NO:2; His-tagged recombinant protein expressed in COS-7 cells and affinity purified (protein, listed as Homo sapiens)
chain: MKLDIGIINENQRVSMSRNIESRSTSPWNYTVTWDPNRYPSEVVQAQCRNLGCINAQGKEDISMNSVPIQQETLVVRRKHQGCSVSFQLEKVLVTVGCTCVTPVIHHVQ
modifications: His tag
**Q.** With B1 as the molecule, how does the “ICAM-1 surface expression, mean fluorescence intensity (MFI)” value read?
**A.** Its value is 31.42±4.39.
